US20250313611A1

Biological target: SARS-COV-2 spike [change] trimer ([change]-foldon-His-Strep) (SARS-CoV-2 (Wuhan)) (UniProt P0DTC2)

VHH72-S56A
IC50 (read off the curve): 0.6 µg/mL
